Reference: patent US20200140542A1 (OSAKA UNIVERSITY, published 2020)

T1: mouse CL-2 (mouse, UniProt O88552 1-230)
T1 construct: whole, on cells; also called mCL-2; mCL-2/L cells
T1 sequence (looked up): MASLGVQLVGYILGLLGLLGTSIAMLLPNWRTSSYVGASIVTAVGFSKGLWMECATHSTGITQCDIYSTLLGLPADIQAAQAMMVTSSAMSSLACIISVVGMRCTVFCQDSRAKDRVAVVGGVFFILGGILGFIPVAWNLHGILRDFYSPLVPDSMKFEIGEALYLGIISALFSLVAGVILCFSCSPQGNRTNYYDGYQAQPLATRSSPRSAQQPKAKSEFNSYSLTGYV

T2: human CL-4 (human, UniProt O14493 1-209)
T2 construct: whole, on cells; also called hCL-4; hCL-4/HT1080 cells
T2 sequence (looked up): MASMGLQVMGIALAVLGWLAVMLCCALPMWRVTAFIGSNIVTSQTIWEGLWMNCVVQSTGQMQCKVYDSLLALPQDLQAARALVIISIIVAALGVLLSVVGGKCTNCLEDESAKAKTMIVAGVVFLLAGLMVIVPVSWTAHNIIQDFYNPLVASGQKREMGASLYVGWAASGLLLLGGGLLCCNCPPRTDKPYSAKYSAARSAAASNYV

T3: human CL-6 (human, UniProt P56747 1-220)
T3 construct: whole, on cells; also called hCL-6; hCL-6/HT1080 cells
T3 sequence (looked up): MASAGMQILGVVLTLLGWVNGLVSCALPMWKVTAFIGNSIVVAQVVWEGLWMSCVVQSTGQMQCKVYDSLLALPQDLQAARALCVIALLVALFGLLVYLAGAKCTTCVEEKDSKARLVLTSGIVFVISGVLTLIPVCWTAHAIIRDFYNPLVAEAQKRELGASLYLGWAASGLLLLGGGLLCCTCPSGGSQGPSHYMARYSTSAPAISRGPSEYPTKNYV

T4: human CL-7 (human, UniProt O95471 1-211)
T4 construct: whole, on cells; also called hCL-7; hCL-7/HT1080 cells
T4 sequence (looked up): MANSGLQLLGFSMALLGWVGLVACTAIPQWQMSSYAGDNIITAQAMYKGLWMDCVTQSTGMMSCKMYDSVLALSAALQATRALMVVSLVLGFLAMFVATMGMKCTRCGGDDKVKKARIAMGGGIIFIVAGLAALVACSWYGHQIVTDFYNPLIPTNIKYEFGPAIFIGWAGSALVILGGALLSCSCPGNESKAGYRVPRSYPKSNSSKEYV

T5: human CL-9 (human, UniProt O95484 1-217)
T5 construct: whole, on cells; also called hCL-9; hCL-9/HT1080 cells
T5 sequence (looked up): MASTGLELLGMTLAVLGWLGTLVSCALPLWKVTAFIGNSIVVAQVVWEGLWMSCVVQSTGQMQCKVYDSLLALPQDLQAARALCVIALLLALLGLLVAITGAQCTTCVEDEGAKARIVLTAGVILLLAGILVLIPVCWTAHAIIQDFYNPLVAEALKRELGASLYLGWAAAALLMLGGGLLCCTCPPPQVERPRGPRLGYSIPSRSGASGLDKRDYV

T6: human CL-1 (human, UniProt O95832 1-211)
T6 construct: whole, on cells; also called hCL-1; hCL-1/HT1080 cells
T6 sequence (looked up): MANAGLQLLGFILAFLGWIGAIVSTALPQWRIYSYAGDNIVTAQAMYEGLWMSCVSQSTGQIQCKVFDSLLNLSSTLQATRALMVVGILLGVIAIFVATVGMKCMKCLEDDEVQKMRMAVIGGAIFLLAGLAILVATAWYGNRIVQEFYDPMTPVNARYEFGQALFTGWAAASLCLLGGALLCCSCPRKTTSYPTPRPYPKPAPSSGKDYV

T7: human CL-3 (human, UniProt O15551 1-220)
T7 construct: whole, on cells; also called hCL-3; hCL-3/HT1080 cells
T7 sequence (looked up): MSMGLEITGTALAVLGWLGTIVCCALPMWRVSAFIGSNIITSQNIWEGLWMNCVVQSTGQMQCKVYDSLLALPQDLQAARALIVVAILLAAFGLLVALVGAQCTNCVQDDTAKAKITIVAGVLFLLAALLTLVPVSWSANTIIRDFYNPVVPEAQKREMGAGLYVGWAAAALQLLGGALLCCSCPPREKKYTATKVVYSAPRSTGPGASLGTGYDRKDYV

T8: human CL-5 (human, UniProt O00501 1-218)
T8 construct: whole, on cells; also called hCL-5; hCL-5/HT1080 cells
T8 sequence (looked up): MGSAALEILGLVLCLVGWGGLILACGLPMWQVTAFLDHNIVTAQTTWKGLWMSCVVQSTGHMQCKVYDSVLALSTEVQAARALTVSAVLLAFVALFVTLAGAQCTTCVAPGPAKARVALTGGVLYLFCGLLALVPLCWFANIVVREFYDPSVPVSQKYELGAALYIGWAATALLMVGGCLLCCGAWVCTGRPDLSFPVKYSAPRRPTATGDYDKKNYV

T9: mouse CLDN1 (mouse, UniProt O88551 1-211)
T9 construct: whole, on cells; also called mCL-1; mCL-1/L cells
T9 sequence (looked up): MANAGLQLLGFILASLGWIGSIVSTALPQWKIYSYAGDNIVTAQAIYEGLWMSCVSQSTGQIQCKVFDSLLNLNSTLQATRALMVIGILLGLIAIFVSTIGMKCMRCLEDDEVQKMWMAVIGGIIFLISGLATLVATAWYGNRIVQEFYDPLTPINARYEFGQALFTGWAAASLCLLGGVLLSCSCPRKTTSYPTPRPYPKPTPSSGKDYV

T10: mouse CL4 (mouse, UniProt O35054 1-210)
T10 construct: whole, on cells; also called mCL-4; mCL-4/L cells
T10 sequence (looked up): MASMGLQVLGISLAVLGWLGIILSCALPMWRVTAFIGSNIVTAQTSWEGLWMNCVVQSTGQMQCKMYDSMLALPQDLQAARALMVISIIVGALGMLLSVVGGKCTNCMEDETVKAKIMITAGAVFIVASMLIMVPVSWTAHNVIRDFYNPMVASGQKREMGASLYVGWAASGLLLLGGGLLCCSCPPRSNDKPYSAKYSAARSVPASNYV


Legend:
mouse CL-2 [1] = target: T1, mouse CL-2; experiment: flow cytometry, culture supernatant on transfected cells
Protocol: (§1) After the hybridoma culture supernatants prepared in Example 1 (1A2, 2G8, and 3B2) were individually added and stirred, the resulting mixtures were allowed to stand on ice for 1 hour. After washing with 0.2% BSA-PBS once, goat anti-rat IgG (H +L)-FITC antibody (KPL) diluted with 1% BSA-PBS was added and stirred, and the resulting mixtures were allowed to stand on ice for 30 minutes. After washing with 0.2% BSA-PBS once, PI (Mitenyi Biotec) diluted with 1% BSA-PBS to a final concentration of 5 μg/mL was added, and FCM analysis was performed.
Further, all the three hybridoma culture supernatants 1A2, 2G8, and 3B2 prepared in Example 1 were also confirmed to have affinity to mCL-2/L cells.

human CL-4 [2] = target: T2, human CL-4; experiment: flow cytometry, hybridoma culture supernatant on transfected cells
Protocol: as §1

human CL-6 [3] = target: T3, human CL-6; experiment: as above
Protocol: as §1

human CL-7 [4] = target: T4, human CL-7; experiment: as above
Protocol: as §1

human CL-9 [5] = target: T5, human CL-9; experiment: as above
Protocol: as §1

human CL-1 [6] = target: T6, human CL-1; experiment: as above
Protocol: as §1

human CL-3 [7] = target: T7, human CL-3; experiment: as above
Protocol: as §1

human CL-4 [8] = target: T2, human CL-4; experiment: flow cytometry on transfected cells
Source text: (§2) hCL-1/HT1080 cells, hCL-2/HT1080 cells, hCL-3/HT1080 cells, hCL-4/HT1080 cells, human CL-5 expressing HT1080 cells (hCL-5/HT1080 cells), hCL-6/HT1080 cells, hCL-7/HT1080 cells, and hCL-9/HT1080 cells, mouse CLDN1 expressing L cells (mCL-1/L cells), mCL-2/L cells, and mouse CL4 expressing L cells (mCL-4/L cells) were individually recovered by trypsin treatment. […] Subsequently, after washing with 0.2% BSA-PBS once, goat anti-human IgG (H+L)-FITC antibody (Jackson ImmunoResearch) diluted with 1% BSA-PBS was added and stirred, and the resulting mixtures were allowed to stand on ice for 30 minutes. After washing with 0.2% BSA-PBS once, PI diluted with 1% BSA-PBS to a final concentration of 5 μg/mL was added, and FCM analysis was performed.

human CL-5 = target: T8, human CL-5; experiment: flow cytometry on transfected cells
Source text: as §2

human CL-6 [9] = target: T3, human CL-6; experiment: flow cytometry on transfected cells
Source text: as §2

human CL-7 [10] = target: T4, human CL-7; experiment: flow cytometry on transfected cells
Source text: as §2

human CL-9 [11] = target: T5, human CL-9; experiment: flow cytometry on transfected cells
Source text: as §2

mouse CLDN1 = target: T9, mouse CLDN1; experiment: flow cytometry on transfected cells
Source text: as §2

mouse CL4 = target: T10, mouse CL4; experiment: flow cytometry on transfected cells
Source text: as §2

human CL-1 [12] = target: T6, human CL-1; experiment: flow cytometry on transfected cells
Source text: as §2

human CL-3 [13] = target: T7, human CL-3; experiment: flow cytometry on transfected cells
Source text: as §2

mouse CL-2 [14] = target: T1, mouse CL-2; experiment: flow cytometry on transfected cells, antibody at 5 µg/mL
Source text: as §2

binding result (mouse CL-2 [1])	binding result (human CL-4 [2])	binding result (human CL-6 [3])	binding result (human CL-7 [4])	binding result (human CL-9 [5])	binding result (human CL-1 [6])	binding result (human CL-3 [7])	binding result (human CL-4 [8])	binding result (human CL-5)	binding result (human CL-6 [9])	binding result (human CL-7 [10])	binding result (human CL-9 [11])	binding result (mouse CLDN1)	binding result (mouse CL4)	binding result (human CL-1 [12])	binding result (human CL-3 [13])	binding result (mouse CL-2 [14])	Binder
binds	no binding	no binding	no binding	no binding	no binding	no binding	–	–	–	–	–	–	–	–	–	–	anti-CL-2 antibody 2G8 (antibody, IgG2b, V domains shown, also called clone 2G8; hybridoma culture supernatant 2G8) VH: QVNLLQSGAALVKPGASVRLSCRVSGYSFTVSFLHWVKQSHGKSLEWIGYINPYSGSPNYNEKFKSKTTLTVDKSTSTAYMELSGLTSEDSASYYCTNWDYWGQGVMVTVSS VL: DVVMTQTPVSLSLAIGQPASISCKSSQSLLGSSGKTFLNWILQRPGQSPKRLIYQVSTLYSEVPDRFSGSGSETEFTLKITRVEAEDLGVYYCWQGIHFPHTFGAGTKLELKR
–	–	–	–	–	–	–	no binding (tested: 5 µg/mL)	no binding (tested: 5 µg/mL)	no binding (tested: 5 µg/mL)	no binding (tested: 5 µg/mL)	no binding (tested: 5 µg/mL)	no binding (tested: 5 µg/mL)	no binding (tested: 5 µg/mL)	no binding (tested: 5 µg/mL)	no binding (tested: 5 µg/mL)	binds	anti-CL-2 human-rat chimeric antibody 2G8 produced in Example 4 (antibody, V domains shown, Variable regions of rat 2G8 cloned into vectors with human constant regions (VH: pFUSE-CHIg-hG1, human IgG1); also called anti-CL-2 chimeric antibody 2G8; anti-CL-2 chimeric antibody 2G8a) VH: QVNLLQSGAALVKPGASVRLSCRVSGYSFTVSFLHWVKQSHGKSLEWIGYINPYSGSPNYNEKFKSKTTLTVDKSTSTAYMELSGLTSEDSASYYCTNWDYWGQGVMVTVSS VL: DVVMTQTPVSLSLAIGQPASISCKSSQSLLGSSGKTFLNWILQRPGQSPKRLIYQVSTLYSEVPDRFSGSGSETEFTLKITRVEAEDLGVYYCWQGIHFPHTFGAGTKLELKR
